Measured values published in EP4663654A1 (Hangzhou Sciwind Biosciences Co., Ltd., dated 2025).
Starred links: 1 amine or outer side, 2 acyl side, 3 side chain; linkers in the order of their positions; H or OH if unused. *: point of attachment. C20 diacid = O=C(O)CCCCCCCCCCCCCCCCCCC(=O)*; C18 diacid = O=C(O)CCCCCCCCCCCCCCCCC(=O)*; C16 diacid = O=C(O)CCCCCCCCCCCCCCC(=O)*; γGlu = O=C(O)[C@H](CCC(=O)[*:2])N[*:1]; AEEA = NCCOCCOCC(=O)O

B1: polypeptide derivative M23 (peptide)
peptide: {C16 diacid-γGlu}-ASQLSTAATQRLADFLRHFTDRDRDILPPTNVGSNTP-NH2
SMILES: CC[C@H](C)[C@H](NC(=O)[C@H](CC(=O)O)NC(=O)[C@H](CCCNC(=N)N)NC(=O)[C@H](CC(=O)O)NC(=O)[C@H](CCCNC(=N)N)NC(=O)[C@H](CC(=O)O)NC(=O)[C@@H](NC(=O)[C@H](Cc1ccccc1)NC(=O)[C@H](Cc1c[nH]cn1)NC(=O)[C@H](CCCNC(=N)N)NC(=O)[C@H](CC(C)C)NC(=O)[C@H](Cc1ccccc1)NC(=O)[C@H](CC(=O)O)NC(=O)[C@H](C)NC(=O)[C@H](CC(C)C)NC(=O)[C@H](CCCNC(=N)N)NC(=O)[C@H](CCC(N)=O)NC(=O)[C@@H](NC(=O)[C@H](C)NC(=O)[C@H](C)NC(=O)[C@@H](NC(=O)[C@H](CO)NC(=O)[C@H](CC(C)C)NC(=O)[C@H](CCC(N)=O)NC(=O)[C@H](CO)NC(=O)[C@H](C)NC(=O)CC[C@H](NC(=O)CCCCCCCCCCCCCCC(=O)O)C(=O)O)[C@@H](C)O)[C@@H](C)O)[C@@H](C)O)C(=O)N[C@@H](CC(C)C)C(=O)N1CCC[C@H]1C(=O)N1CCC[C@H]1C(=O)N[C@H](C(=O)N[C@@H](CC(N)=O)C(=O)N[C@H](C(=O)NCC(=O)N[C@@H](CO)C(=O)N[C@@H](CC(N)=O)C(=O)N[C@H](C(=O)N1CCC[C@H]1C(N)=O)[C@@H](C)O)C(C)C)[C@@H](C)O
B2: polypeptide derivative M22 (peptide)
peptide: {C18 diacid-γGlu}-ASQLSTAATQRLADFLRHFTDRDRDILPPTNVGSNTP-NH2
SMILES: CC[C@H](C)[C@H](NC(=O)[C@H](CC(=O)O)NC(=O)[C@H](CCCNC(=N)N)NC(=O)[C@H](CC(=O)O)NC(=O)[C@H](CCCNC(=N)N)NC(=O)[C@H](CC(=O)O)NC(=O)[C@@H](NC(=O)[C@H](Cc1ccccc1)NC(=O)[C@H](Cc1c[nH]cn1)NC(=O)[C@H](CCCNC(=N)N)NC(=O)[C@H](CC(C)C)NC(=O)[C@H](Cc1ccccc1)NC(=O)[C@H](CC(=O)O)NC(=O)[C@H](C)NC(=O)[C@H](CC(C)C)NC(=O)[C@H](CCCNC(=N)N)NC(=O)[C@H](CCC(N)=O)NC(=O)[C@@H](NC(=O)[C@H](C)NC(=O)[C@H](C)NC(=O)[C@@H](NC(=O)[C@H](CO)NC(=O)[C@H](CC(C)C)NC(=O)[C@H](CCC(N)=O)NC(=O)[C@H](CO)NC(=O)[C@H](C)NC(=O)CC[C@H](NC(=O)CCCCCCCCCCCCCCCCC(=O)O)C(=O)O)[C@@H](C)O)[C@@H](C)O)[C@@H](C)O)C(=O)N[C@@H](CC(C)C)C(=O)N1CCC[C@H]1C(=O)N1CCC[C@H]1C(=O)N[C@H](C(=O)N[C@@H](CC(N)=O)C(=O)N[C@H](C(=O)NCC(=O)N[C@@H](CO)C(=O)N[C@@H](CC(N)=O)C(=O)N[C@H](C(=O)N1CCC[C@H]1C(N)=O)[C@@H](C)O)C(C)C)[C@@H](C)O
B3: polypeptide derivative M25 (peptide)
peptide: {C20 diacid-γGlu-AEEA-AEEA-AEEA-AEEA-AEEA-AEEA}-ASQLSTAATQRLADFLRHFTDRDRDILPPTNVGSNTP-NH2
SMILES: CC[C@H](C)[C@H](NC(=O)[C@H](CC(=O)O)NC(=O)[C@H](CCCNC(=N)N)NC(=O)[C@H](CC(=O)O)NC(=O)[C@H](CCCNC(=N)N)NC(=O)[C@H](CC(=O)O)NC(=O)[C@@H](NC(=O)[C@H](Cc1ccccc1)NC(=O)[C@H](Cc1c[nH]cn1)NC(=O)[C@H](CCCNC(=N)N)NC(=O)[C@H](CC(C)C)NC(=O)[C@H](Cc1ccccc1)NC(=O)[C@H](CC(=O)O)NC(=O)[C@H](C)NC(=O)[C@H](CC(C)C)NC(=O)[C@H](CCCNC(=N)N)NC(=O)[C@H](CCC(N)=O)NC(=O)[C@@H](NC(=O)[C@H](C)NC(=O)[C@H](C)NC(=O)[C@@H](NC(=O)[C@H](CO)NC(=O)[C@H](CC(C)C)NC(=O)[C@H](CCC(N)=O)NC(=O)[C@H](CO)NC(=O)[C@H](C)NC(=O)COCCOCCNC(=O)COCCOCCNC(=O)COCCOCCNC(=O)COCCOCCNC(=O)COCCOCCNC(=O)COCCOCCNC(=O)CC[C@H](NC(=O)CCCCCCCCCCCCCCCCCCC(=O)O)C(=O)O)[C@@H](C)O)[C@@H](C)O)[C@@H](C)O)C(=O)N[C@@H](CC(C)C)C(=O)N1CCC[C@H]1C(=O)N1CCC[C@H]1C(=O)N[C@H](C(=O)N[C@@H](CC(N)=O)C(=O)N[C@H](C(=O)NCC(=O)N[C@@H](CO)C(=O)N[C@@H](CC(N)=O)C(=O)N[C@H](C(=O)N1CCC[C@H]1C(N)=O)[C@@H](C)O)C(C)C)[C@@H](C)O
B4: polypeptide derivative M3 (peptide)
peptide: {C20 diacid-γGlu}-ASELSTAALGRLADFLRHFTDRDRDILPPTNVGSNTP-NH2
SMILES: CC[C@H](C)[C@H](NC(=O)[C@H](CC(=O)O)NC(=O)[C@H](CCCNC(=N)N)NC(=O)[C@H](CC(=O)O)NC(=O)[C@H](CCCNC(=N)N)NC(=O)[C@H](CC(=O)O)NC(=O)[C@@H](NC(=O)[C@H](Cc1ccccc1)NC(=O)[C@H](Cc1c[nH]cn1)NC(=O)[C@H](CCCNC(=N)N)NC(=O)[C@H](CC(C)C)NC(=O)[C@H](Cc1ccccc1)NC(=O)[C@H](CC(=O)O)NC(=O)[C@H](C)NC(=O)[C@H](CC(C)C)NC(=O)[C@H](CCCNC(=N)N)NC(=O)CNC(=O)[C@H](CC(C)C)NC(=O)[C@H](C)NC(=O)[C@H](C)NC(=O)[C@@H](NC(=O)[C@H](CO)NC(=O)[C@H](CC(C)C)NC(=O)[C@H](CCC(=O)O)NC(=O)[C@H](CO)NC(=O)[C@H](C)NC(=O)CC[C@H](NC(=O)CCCCCCCCCCCCCCCCCCC(=O)O)C(=O)O)[C@@H](C)O)[C@@H](C)O)C(=O)N[C@@H](CC(C)C)C(=O)N1CCC[C@H]1C(=O)N1CCC[C@H]1C(=O)N[C@H](C(=O)N[C@@H](CC(N)=O)C(=O)N[C@H](C(=O)NCC(=O)N[C@@H](CO)C(=O)N[C@@H](CC(N)=O)C(=O)N[C@H](C(=O)N1CCC[C@H]1C(N)=O)[C@@H](C)O)C(C)C)[C@@H](C)O
B5: polypeptide derivative M4 (peptide)
peptide: {C20 diacid-γGlu}-ASQLSTAVLGRLADFLRHFTDRDRDILPPTNVGSNTP-NH2
SMILES: CC[C@H](C)[C@H](NC(=O)[C@H](CC(=O)O)NC(=O)[C@H](CCCNC(=N)N)NC(=O)[C@H](CC(=O)O)NC(=O)[C@H](CCCNC(=N)N)NC(=O)[C@H](CC(=O)O)NC(=O)[C@@H](NC(=O)[C@H](Cc1ccccc1)NC(=O)[C@H](Cc1c[nH]cn1)NC(=O)[C@H](CCCNC(=N)N)NC(=O)[C@H](CC(C)C)NC(=O)[C@H](Cc1ccccc1)NC(=O)[C@H](CC(=O)O)NC(=O)[C@H](C)NC(=O)[C@H](CC(C)C)NC(=O)[C@H](CCCNC(=N)N)NC(=O)CNC(=O)[C@H](CC(C)C)NC(=O)[C@@H](NC(=O)[C@H](C)NC(=O)[C@@H](NC(=O)[C@H](CO)NC(=O)[C@H](CC(C)C)NC(=O)[C@H](CCC(N)=O)NC(=O)[C@H](CO)NC(=O)[C@H](C)NC(=O)CC[C@H](NC(=O)CCCCCCCCCCCCCCCCCCC(=O)O)C(=O)O)[C@@H](C)O)C(C)C)[C@@H](C)O)C(=O)N[C@@H](CC(C)C)C(=O)N1CCC[C@H]1C(=O)N1CCC[C@H]1C(=O)N[C@H](C(=O)N[C@@H](CC(N)=O)C(=O)N[C@H](C(=O)NCC(=O)N[C@@H](CO)C(=O)N[C@@H](CC(N)=O)C(=O)N[C@H](C(=O)N1CCC[C@H]1C(N)=O)[C@@H](C)O)C(C)C)[C@@H](C)O
B6: polypeptide derivative M24 (peptide)
peptide: {C20 diacid-γGlu-AEEA-AEEA-AEEA-AEEA}-ASQLSTAATQRLADFLRHFTDRDRDILPPTNVGSNTP-NH2
SMILES: CC[C@H](C)[C@H](NC(=O)[C@H](CC(=O)O)NC(=O)[C@H](CCCNC(=N)N)NC(=O)[C@H](CC(=O)O)NC(=O)[C@H](CCCNC(=N)N)NC(=O)[C@H](CC(=O)O)NC(=O)[C@@H](NC(=O)[C@H](Cc1ccccc1)NC(=O)[C@H](Cc1c[nH]cn1)NC(=O)[C@H](CCCNC(=N)N)NC(=O)[C@H](CC(C)C)NC(=O)[C@H](Cc1ccccc1)NC(=O)[C@H](CC(=O)O)NC(=O)[C@H](C)NC(=O)[C@H](CC(C)C)NC(=O)[C@H](CCCNC(=N)N)NC(=O)[C@H](CCC(N)=O)NC(=O)[C@@H](NC(=O)[C@H](C)NC(=O)[C@H](C)NC(=O)[C@@H](NC(=O)[C@H](CO)NC(=O)[C@H](CC(C)C)NC(=O)[C@H](CCC(N)=O)NC(=O)[C@H](CO)NC(=O)[C@H](C)NC(=O)COCCOCCNC(=O)COCCOCCNC(=O)COCCOCCNC(=O)COCCOCCNC(=O)CC[C@H](NC(=O)CCCCCCCCCCCCCCCCCCC(=O)O)C(=O)O)[C@@H](C)O)[C@@H](C)O)[C@@H](C)O)C(=O)N[C@@H](CC(C)C)C(=O)N1CCC[C@H]1C(=O)N1CCC[C@H]1C(=O)N[C@H](C(=O)N[C@@H](CC(N)=O)C(=O)N[C@H](C(=O)NCC(=O)N[C@@H](CO)C(=O)N[C@@H](CC(N)=O)C(=O)N[C@H](C(=O)N1CCC[C@H]1C(N)=O)[C@@H](C)O)C(C)C)[C@@H](C)O

target: T1, human amylin receptor (AMY3) on CHO-K1/Ga15/AMY3 amylin receptor/CRE-luc cells (human, UniProt P30988 25-474; O60896 24-148); assay: cell-based or functional assay
T1 sequence (looked up) 1: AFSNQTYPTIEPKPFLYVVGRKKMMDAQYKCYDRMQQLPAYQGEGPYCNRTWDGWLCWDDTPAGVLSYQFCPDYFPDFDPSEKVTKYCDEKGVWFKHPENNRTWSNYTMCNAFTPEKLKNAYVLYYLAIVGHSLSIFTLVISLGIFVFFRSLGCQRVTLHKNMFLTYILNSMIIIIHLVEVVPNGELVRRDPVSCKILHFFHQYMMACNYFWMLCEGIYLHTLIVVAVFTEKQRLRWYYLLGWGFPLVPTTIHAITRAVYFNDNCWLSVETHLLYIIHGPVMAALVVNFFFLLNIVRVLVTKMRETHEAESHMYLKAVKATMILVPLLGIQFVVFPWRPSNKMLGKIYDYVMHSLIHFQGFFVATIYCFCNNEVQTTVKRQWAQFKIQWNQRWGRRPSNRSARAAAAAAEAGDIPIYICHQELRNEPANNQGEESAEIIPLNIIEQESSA
T1 sequence (looked up) 2: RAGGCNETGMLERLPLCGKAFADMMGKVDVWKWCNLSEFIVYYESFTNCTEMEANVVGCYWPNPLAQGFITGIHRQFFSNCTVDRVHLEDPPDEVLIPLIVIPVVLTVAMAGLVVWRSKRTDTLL

Binder | EC50/nM, CRE-luciferase reporter in amylin receptor/CRE-luc CHO cells [nM] | Relative activity (the EC50 ratio of Cagrilintide to the compound) [%]
B1 | 0.017 | 182
B2 | 0.016 | 198
B3 | 0.124 | 25
B4 | 0.081 | 32
B5 | 0.081 | 32
B6 | 0.066 | 47
